Measurements taken from patent US6942988.

The substances below were run against carboxyl-terminal Myc-tagged Ptc-CTD (mouse Ptc with a 140-residue carboxyl-terminal deletion; amino acids 1-1,291) (mouse) (UniProt Q61115) (assay: Scatchard analysis of the high-affinity component of 32P-Shh-N binding to EcR-293 cells expressing Ptc-CTD, 4 C).
Sequence of carboxyl-terminal Myc-tagged Ptc-CTD (mouse Ptc with a 140-residue carboxyl-terminal deletion; amino acids 1-1,291) (mouse) (Q61115 1-1291, stated change not applied): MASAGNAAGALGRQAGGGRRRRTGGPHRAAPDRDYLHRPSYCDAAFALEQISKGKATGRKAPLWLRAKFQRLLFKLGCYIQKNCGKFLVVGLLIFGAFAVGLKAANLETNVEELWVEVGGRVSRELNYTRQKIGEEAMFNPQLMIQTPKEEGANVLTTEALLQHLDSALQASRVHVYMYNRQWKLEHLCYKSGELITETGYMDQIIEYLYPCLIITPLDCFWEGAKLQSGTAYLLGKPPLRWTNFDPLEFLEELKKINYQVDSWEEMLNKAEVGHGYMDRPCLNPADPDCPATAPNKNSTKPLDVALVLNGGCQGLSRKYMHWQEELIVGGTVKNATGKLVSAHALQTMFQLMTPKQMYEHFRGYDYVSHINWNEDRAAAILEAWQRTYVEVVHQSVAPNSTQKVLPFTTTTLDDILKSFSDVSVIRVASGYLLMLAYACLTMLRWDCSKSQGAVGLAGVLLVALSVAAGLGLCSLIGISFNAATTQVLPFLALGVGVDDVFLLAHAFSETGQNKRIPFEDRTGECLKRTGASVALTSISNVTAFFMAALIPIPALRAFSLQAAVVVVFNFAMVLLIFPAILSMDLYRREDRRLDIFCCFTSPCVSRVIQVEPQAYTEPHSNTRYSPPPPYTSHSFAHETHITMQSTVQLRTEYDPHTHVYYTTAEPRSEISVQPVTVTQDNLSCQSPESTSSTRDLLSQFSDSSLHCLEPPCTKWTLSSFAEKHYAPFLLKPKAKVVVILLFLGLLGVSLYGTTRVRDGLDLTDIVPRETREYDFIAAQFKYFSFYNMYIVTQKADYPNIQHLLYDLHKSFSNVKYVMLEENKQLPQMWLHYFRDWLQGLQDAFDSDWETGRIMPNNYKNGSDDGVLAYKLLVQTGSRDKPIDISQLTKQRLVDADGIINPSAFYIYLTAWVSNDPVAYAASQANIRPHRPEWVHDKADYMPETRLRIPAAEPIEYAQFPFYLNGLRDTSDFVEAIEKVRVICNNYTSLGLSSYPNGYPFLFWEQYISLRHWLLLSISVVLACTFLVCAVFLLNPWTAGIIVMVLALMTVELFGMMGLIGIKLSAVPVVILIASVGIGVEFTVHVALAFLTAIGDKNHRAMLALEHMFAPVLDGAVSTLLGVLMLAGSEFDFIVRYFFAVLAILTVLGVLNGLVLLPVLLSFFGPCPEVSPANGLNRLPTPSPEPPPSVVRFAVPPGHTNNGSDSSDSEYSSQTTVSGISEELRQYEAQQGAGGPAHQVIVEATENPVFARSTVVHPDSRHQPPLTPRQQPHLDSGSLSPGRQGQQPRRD

Row | Kd [nM] | Substance
1 | 0.48 | 32P-labeled Shh-N protein with a protein kinase A site tag (RRASV) at the carboxy terminus (from UniProt Q62226 25-198) (ligand)

Each substance was assayed against carboxyl-terminal Myc-tagged Ptc-CTD (mouse Ptc with a 140-residue carboxyl-terminal deletion; amino acids 1-1,291) (mouse) (UniProt Q61115) (assay: competition with 0.9 nM 32P-Shh-N for binding to EcR-293 cells expressing Ptc-CTD, 4 C; KI from IC50).

Row | Substance | Ki [nM]
2 | Shh-N H135A, E177A double mutant (EH) protein (from UniProt Q62226 25-198) (ligand) | 1.7
3 | Shh-N SC mutant protein (P42A, K46A, R154A, S157A, S178A, K179A) (from UniProt Q62226 25-198) (ligand) | > 36
4 | Shh-N SE protein (P42A, K46A) (from UniProt Q62226 25-198) (ligand) | 2.4
5 | Shh-N SF protein (R154A, S157A) (from UniProt Q62226 25-198) (ligand) | 9.1
6 | Shh-N SG protein (S178A, K179A) (from UniProt Q62226 25-198) (ligand) | 4.3

Continued, values first:

Row | Ki [nM] | Substance
7 | 1.7 | Shh-N E177A (EA) mutant protein (from UniProt Q62226 25-198) (ligand)
8 | 0.63 | Shh-N H135A (HA) mutant protein (from UniProt Q62226 25-198) (ligand)
9 | 0.66 | Shh-N SA altered protein (K75A, E76A, Y81A, D105A, N116A, E189A, K195A) (from UniProt Q62226 25-198) (ligand)
10 | 0.48 | Shh-N SB altered protein (N51A, V52A, T56A, E168A) (from UniProt Q62226 25-198) (ligand)
11 | 0.84 | Shh-N SD altered protein (E90A, D132A, E138A) (from UniProt Q62226 25-198) (ligand)

The substances below were run against carboxyl-terminal Myc-tagged Ptc-CTD (mouse Ptc with a 140-residue carboxyl-terminal deletion; amino acids 1-1,291) (mouse) (UniProt Q61115) (assay: binding of 32P-Shh-N to EcR-293 cells expressing Ptc-CTD without competitor).

Row | percent of input bound in the absence of competitor | Substance
12 | 35 % of input | 32P-labeled Shh-N protein with a protein kinase A site tag (RRASV) at the carboxy terminus (from UniProt Q62226 25-198) (ligand)

The substances below were run against carboxyl-terminal Myc-tagged Ptc-CTD (mouse Ptc with a 140-residue carboxyl-terminal deletion; amino acids 1-1,291) (mouse) (UniProt Q61115) (assay: Table 1 'Ptc-CTD affinity'; for wild type the dissociation constant (KL), as from the Scatchard analysis of 32P-Shh-N on EcR-293 cells expressing Ptc-CTD).

Row | Kd [nM] | Substance
13 | 0.48 | wild-type Sonic hedgehog amino-terminal signaling domain protein (Shh-N), aa 25-198 (from UniProt Q62226 25-198) (ligand)
